Source: article PMC7111185 (Biochemical and Biophysical Research Communications, 2004)

Target: 30a-HR1 (His-tagged heptad repeat 1 region of SARS-CoV spike protein, amino acids 898-1005) (SARS-CoV, UniProt P59594 898-1005)
Experiment: pull-down

GDISGINASVVNIQKEIDRLNEVAKNLNESLIDLQELG (domain or fragment) [GST-HR2-38 (GST fusion of SARS-CoV spike HR2, amino acids 1149-1186)]: binds.
